US20240181094A1, “[161Tb]-BASED RADIOPEPTIDES” (priority 2021, published 2024)

What was measured:
[1] = system: AR42 J tumor-bearing mice; experiment: Preclinical therapy study in AR42 J tumor-bearing mice; assay type: in vivo; settings: 2 x 10 MBq; for tumor doubling time: 0.2 nmol, regrowth phase, fitted exponential curve
AR42J tumor-bearing mice = experiment: Biodistribution studies: assessment of the optimum injected molar amount; settings: 2 h p.i.; for kidney uptake: irrespective of the injected amount of peptide
[2] = mouse, in vivo
Description: Early side effects were assessed based on the RBW of each mouse which was monitored every second day. When an endpoint was reached or at the end of the study (after 49 days), relevant organs and tissues were collected, weighed and put into relation to the brain mass and body weight of the respective mouse. This allowed comparison of organ-to-brain and organ-to-body mass weight ratios. In addition, blood plasma parameters from blood collected immediately after euthanasia were measured.
RBW, organ mass and mass ratios at the endpoint. The RBW was monitored every second day. Mice were euthanized when a predefined endpoint criterion was reached or when the study was terminated at Day 49. RBWs, organ masses, organ mass ratios (kidney-to-brain, liver-to-brain and spleen-to-brain) and organ mass to body weight ratios (kidney-to-body mass, liver-to-body mass and spleen-to-body mass) were analyzed for significance using a one-way ANOVA test with a Tukey's multiple comparisons post-test. A p-value of <0.05 was considered as statistically significant.
Blood plasma chemistry: Immediately before euthanasia of the mice that reached the endpoint, blood was sampled from the retrobulbar vein. The values of creatinine (CRE), blood urea nitrogen (BUN), alkaline phosphatase (ALP), total bilirubin (TBIL) and albumin (ALB) were determined in the plasma after centrifugation of the blood using a dry chemistry analyzer (DRI-CHEM 4000 i, FUJIFILM, Japan). The average blood plasma parameters of each group were analyzed for significance using a one-way ANOVA test with a Tukey's multiple comparisons post-test. A p-value of <0.05 was considered as statistically significant.

With `C[C@@H](O)[C@@H]1NC(=O)[C@H](CCCCN)NC(=O)[C@@H](Cc2c[nH]c3ccccc23)NC(=O)[C@H](Cc2ccc(O)cc2)NC(=O)[C@@H](NC(=O)[C@@H](Cc2ccccc2)NC(=O)CN2CCN(CC(=O)O)CCN(CC(=O)O)CCN(CC(=O)O)CC2)CSSC[C@@H](C(=O)N[C@H](CO)[C@@H](C)O)NC1=O` [[^161Tb]Tb-DOTATOC] [metal not drawn] the Median survival ([1]; 0.2 nmol (Day 0, Day 7)) was 21 days, the tumor growth delay ([1]; 0.2 nmol (Day 0, Day 7)) was 9.0 ± 5.5 days and the tumor doubling time [1] was 3.4 ± 3.6 days. The “AR42J Tumor uptake” value (AR42J tumor-bearing mice; 0.040 nmol/mouse) was 16 ± 4 % IA/g, the Adrenals uptake (AR42J tumor-bearing mice; 0.040 nmol/mouse) was 0.65 ± 0.08 % IA/g and the Intestines uptake (AR42J tumor-bearing mice; 0.040 nmol/mouse) was 0.52 ± 0.15 % IA/g. For the same compound, the Kidneys uptake (AR42J tumor-bearing mice; 0.040 nmol/mouse) was 9.0 ± 2.0 % IA/g, the Liver uptake (AR42J tumor-bearing mice; 0.040 nmol/mouse) was 0.22 ± 0.02 % IA/g and the Pancreas uptake (AR42J tumor-bearing mice; 0.040 nmol/mouse) was 2.1 ± 0.5 % IA/g. For the same compound, the Spleen uptake (AR42J tumor-bearing mice; 0.040 nmol/mouse) was 0.50 ± 0.11 % IA/g, the Stomach uptake (AR42J tumor-bearing mice; 0.040 nmol/mouse) was 2.9 ± 1.1 % IA/g and the “AR42J Tumor uptake” value (AR42J tumor-bearing mice; 0.20 nmol/mouse) was 14 ± 1 % IA/g. The Adrenals uptake (AR42J tumor-bearing mice; 0.20 nmol/mouse) was 0.43 ± 0.11 % IA/g, the Blood uptake (AR42J tumor-bearing mice; 0.20 nmol/mouse) was at most 0.10 % IA/g and the Femur uptake (AR42J tumor-bearing mice; 0.20 nmol/mouse) was 0.12 ± 0.03 % IA/g. For the same compound, the Intestines uptake (AR42J tumor-bearing mice; 0.20 nmol/mouse) was 0.24 ± 0.01 % IA/g, the Kidneys uptake (AR42J tumor-bearing mice; 0.20 nmol/mouse) was 9.4 ± 0.4 % IA/g and the Liver uptake (AR42J tumor-bearing mice; 0.20 nmol/mouse) was 0.19 ± 0.03 % IA/g. The Lung uptake (AR42J tumor-bearing mice; 0.20 nmol/mouse) was 0.47 ± 0.05 % IA/g, the Pancreas uptake (AR42J tumor-bearing mice; 0.20 nmol/mouse) was 1.5 ± 0.2 % IA/g and the Spleen uptake (AR42J tumor-bearing mice; 0.20 nmol/mouse) was 0.18 ± 0.02 % IA/g. The “AR42J Tumor uptake” value (AR42J tumor-bearing mice; 1.0 nmol/mouse) was 8.2 ± 0.2 % IA/g, the Adrenals uptake (AR42J tumor-bearing mice; 1.0 nmol/mouse) was 0.25 ± 0.06 % IA/g and the Blood uptake (AR42J tumor-bearing mice; 1.0 nmol/mouse) was at most 0.10 % IA/g. It also gave a Femur uptake (AR42J tumor-bearing mice; 1.0 nmol/mouse) of at most 0.10 % IA/g, a Heart uptake (AR42J tumor-bearing mice; 1.0 nmol/mouse) of at most 0.10 % IA/g and an Intestines uptake (AR42J tumor-bearing mice; 1.0 nmol/mouse) of 0.21 ± 0.13 % IA/g. The Kidneys uptake (AR42J tumor-bearing mice; 1.0 nmol/mouse) was 9.9 ± 1.3 % IA/g, the Liver uptake (AR42J tumor-bearing mice; 1.0 nmol/mouse) was 0.17 ± 0.01 % IA/g and the Lung uptake (AR42J tumor-bearing mice; 1.0 nmol/mouse) was 0.27 ± 0.03 % IA/g. For the same compound, the Muscle uptake (AR42J tumor-bearing mice; 1.0 nmol/mouse) was at most 0.10 % IA/g, the Pancreas uptake (AR42J tumor-bearing mice; 1.0 nmol/mouse) was 0.71 ± 0.07 % IA/g and the Spleen uptake (AR42J tumor-bearing mice; 1.0 nmol/mouse) was 0.11 ± 0.02 % IA/g. The Stomach uptake (AR42J tumor-bearing mice; 1.0 nmol/mouse) was 0.74 ± 0.38 % IA/g, the kidney uptake (AR42J tumor-bearing mice) was about 10 % IA/g and the “ALB (albumin), plasma” value [2] was 23 ± 2 g/L. For the same compound, the “ALP (alkaline phosphatase), plasma” value [2] was 76 ± 21 U/L, the “BUN (blood urea nitrogen), plasma” value [2] was 5.8 ± 1.0 mmol/L and the “CRE (creatinine), plasma” value [2] was under 18 µmol/L. The “Organ mass Brain” value [2] was 440 ± 23 mg, the “Organ mass Kidneys” value [2] was 352 ± 27 mg and the “Organ mass Liver” value [2] was 1195 ± 57 mg. The “Organ mass Spleen” value [2] was 86 ± 19 mg.
In the case of `C[C@@H](O)[C@@H]1NC(=O)[C@H](CCCCN)NC(=O)[C@@H](Cc2c[nH]c3ccccc23)NC(=O)[C@H](Cc2ccc(O)cc2)NC(=O)[C@@H](NC(=O)[C@@H](Cc2ccccc2)NC(=O)CN2CCN(CC(=O)O)CCN(CC(=O)O)CCN(CC(=O)O)CC2)CSSC[C@@H](C(=O)N[C@H](CO)[C@@H](C)O)NC1=O` [[^177Lu]Lu-DOTATOC] [metal not drawn], the tumor growth delay ([1]; 0.2 nmol (Day 0, Day 7)) is reported as 6.0 ± 4.4 days, the tumor doubling time [1] is reported as 3.4 ± 0.8 days and the “AR42J Tumor uptake” value (AR42J tumor-bearing mice; 0.040 nmol/mouse) is reported as 18 ± 3 % IA/g. It also gave an Adrenals uptake (AR42J tumor-bearing mice; 0.040 nmol/mouse) of 0.65 ± 0.10 % IA/g, a Blood uptake (AR42J tumor-bearing mice; 0.040 nmol/mouse) of at most 0.10 % IA/g and a Femur uptake (AR42J tumor-bearing mice; 0.040 nmol/mouse) of 0.17 ± 0.05 % IA/g. The Heart uptake (AR42J tumor-bearing mice; 0.040 nmol/mouse) was at most 0.10 % IA/g, the Intestines uptake (AR42J tumor-bearing mice; 0.040 nmol/mouse) was 0.33 ± 0.05 % IA/g and the Kidneys uptake (AR42J tumor-bearing mice; 0.040 nmol/mouse) was 10 ± 2 % IA/g. It also gave a Liver uptake (AR42J tumor-bearing mice; 0.040 nmol/mouse) of 0.18 ± 0.02 % IA/g, a Lung uptake (AR42J tumor-bearing mice; 0.040 nmol/mouse) of 1.1 ± 0.2 % IA/g and a Muscle uptake (AR42J tumor-bearing mice; 0.040 nmol/mouse) of at most 0.10 % IA/g. The Pancreas uptake (AR42J tumor-bearing mice; 0.040 nmol/mouse) was 1.9 ± 0.2 % IA/g, the Spleen uptake (AR42J tumor-bearing mice; 0.040 nmol/mouse) was 0.39 ± 0.11 % IA/g and the Stomach uptake (AR42J tumor-bearing mice; 0.040 nmol/mouse) was 1.7 ± 0.3 % IA/g. For the same compound, the “AR42J Tumor uptake” value (AR42J tumor-bearing mice; 0.20 nmol/mouse) was 17 ± 4 % IA/g, the Adrenals uptake (AR42J tumor-bearing mice; 0.20 nmol/mouse) was 0.51 ± 0.35 % IA/g and the Femur uptake (AR42J tumor-bearing mice; 0.20 nmol/mouse) was 0.10 ± 0.01 % IA/g. The Heart uptake (AR42J tumor-bearing mice; 0.20 nmol/mouse) was at most 0.10 % IA/g, the Intestines uptake (AR42J tumor-bearing mice; 0.20 nmol/mouse) was 0.40 ± 0.25 % IA/g and the Kidneys uptake (AR42J tumor-bearing mice; 0.20 nmol/mouse) was 10 ± 3 % IA/g. For the same compound, the Liver uptake (AR42J tumor-bearing mice; 0.20 nmol/mouse) was 0.15 ± 0.03 % IA/g, the Lung uptake (AR42J tumor-bearing mice; 0.20 nmol/mouse) was 0.63 ± 0.03 % IA/g and the Muscle uptake (AR42J tumor-bearing mice; 0.20 nmol/mouse) was at most 0.10 % IA/g. The Pancreas uptake (AR42J tumor-bearing mice; 0.20 nmol/mouse) was 1.7 ± 0.5 % IA/g, the Spleen uptake (AR42J tumor-bearing mice; 0.20 nmol/mouse) was 0.15 ± 0.02 % IA/g and the Stomach uptake (AR42J tumor-bearing mice; 0.20 nmol/mouse) was 1.1 ± 0.2 % IA/g. For the same compound, the “AR42J Tumor uptake” value (AR42J tumor-bearing mice; 1.0 nmol/mouse) was 8.9 ± 1.5 % IA/g, the Adrenals uptake (AR42J tumor-bearing mice; 1.0 nmol/mouse) was 0.28 ± 0.08 % IA/g and the Blood uptake (AR42J tumor-bearing mice; 1.0 nmol/mouse) was at most 0.10 % IA/g. For the same compound, the Femur uptake (AR42J tumor-bearing mice; 1.0 nmol/mouse) was at most 0.10 % IA/g, the Heart uptake (AR42J tumor-bearing mice; 1.0 nmol/mouse) was at most 0.10 % IA/g and the Intestines uptake (AR42J tumor-bearing mice; 1.0 nmol/mouse) was 0.20 ± 0.05 % IA/g. It also gave a Kidneys uptake (AR42J tumor-bearing mice; 1.0 nmol/mouse) of 11 ± 1 % IA/g, a Liver uptake (AR42J tumor-bearing mice; 1.0 nmol/mouse) of 0.26 ± 0.07 % IA/g and a Lung uptake (AR42J tumor-bearing mice; 1.0 nmol/mouse) of 0.37 ± 0.06 % IA/g. It also gave a Muscle uptake (AR42J tumor-bearing mice; 1.0 nmol/mouse) of at most 0.10 % IA/g, a Pancreas uptake (AR42J tumor-bearing mice; 1.0 nmol/mouse) of 0.80 ± 0.13 % IA/g and a Spleen uptake (AR42J tumor-bearing mice; 1.0 nmol/mouse) of 0.15 ± 0.03 % IA/g. For the same compound, the Stomach uptake (AR42J tumor-bearing mice; 1.0 nmol/mouse) was 0.65 ± 0.11 % IA/g, the kidney uptake (AR42J tumor-bearing mice) was about 10 % IA/g and the “ALB (albumin), plasma” value [2] was 24 ± 5 g/L. For the same compound, the “ALP (alkaline phosphatase), plasma” value [2] was 77 ± 8 U/L, the “BUN (blood urea nitrogen), plasma” value [2] was 6.3 ± 0.9 mmol/L and the “CRE (creatinine), plasma” value [2] was under 18 µmol/L. For the same compound, the “Organ mass Brain” value [2] was 453 ± 31 mg, the “Organ mass Kidneys” value [2] was 342 ± 23 mg and the “Organ mass Liver” value [2] was 1121 ± 123 mg. The “Organ mass Spleen” value [2] was 90 ± 17 mg.
